# Measurements taken from patent US20170246255.
# Assays:
# [1] = system: T1, model peptide analog WALAPRXFA (X = tertiary leucine)
# T1 sequence: WALAPRXFA
# [2] = system: T2, model thrombin substrate peptide WALAPRSFA
# T2 sequence: WALAPRSFA
substance,measurement,setting,value
thrombin,"cleavage of the peptide by the enzyme, C18 reverse phase HPLC and mass spectra after 4 hours at 23° C. with 10 nM thrombin",[1],the TLE substituted peptide analog was not cleaved by thrombin under these conditions
same,"cleavage of the peptide by the enzyme, C18 reverse phase HPLC and mass spectra after 4 hours at 23° C. with 10 nM thrombin",[2],unmodified peptide was efficiently cleaved by thrombin to yield the cleavage product WALAPR
